Data published in patent CN116143922A (BEIJING DONGFANG BIOTECH CO LTD, dated 2023).

Columns and labels:
LILRA5 [1] = biological target: T1, LILRA5 (UniProt A6NI73 42-268, limits assumed); test: ELISA, coated LILR family protein, antibody at 50 μg/mL
LILRA2 [2] = biological target: T2, LILRA2 (UniProt Q8N149 24-449, limits assumed); test: as above
LILRA3 [3] = biological target: T3, LILRA3 (UniProt Q8N6C8 24-439); test: as above
LILRB4抗原 (人LILRB4蛋白胞外段) [4] = biological target: T4, LILRB4抗原 (人LILRB4蛋白胞外段) (human, UniProt Q8NHJ6 22-259); test: as above
T4 construct: extracellular domain

LILRA4 [5] = biological target: T5, LILRA4 (UniProt P59901 24-446, limits assumed); test: as above
T5 sequence (P59901 24-446 limits assumed): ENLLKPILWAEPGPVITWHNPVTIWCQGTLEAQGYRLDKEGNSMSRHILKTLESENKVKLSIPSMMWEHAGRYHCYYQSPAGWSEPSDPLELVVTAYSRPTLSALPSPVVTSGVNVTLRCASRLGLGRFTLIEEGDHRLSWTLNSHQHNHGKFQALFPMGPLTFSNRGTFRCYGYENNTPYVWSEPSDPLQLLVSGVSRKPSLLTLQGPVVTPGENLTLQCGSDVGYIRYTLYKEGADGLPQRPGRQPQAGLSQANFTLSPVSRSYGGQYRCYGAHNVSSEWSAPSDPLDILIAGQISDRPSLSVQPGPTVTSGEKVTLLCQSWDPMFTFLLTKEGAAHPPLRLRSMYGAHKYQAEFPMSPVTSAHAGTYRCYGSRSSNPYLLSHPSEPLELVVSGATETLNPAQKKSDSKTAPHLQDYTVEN

LILRB2 [6] = biological target: T6, LILRB2 (UniProt Q8N423 22-460, limits assumed); test: as above
T6 sequence (Q8N423 22-460 limits assumed): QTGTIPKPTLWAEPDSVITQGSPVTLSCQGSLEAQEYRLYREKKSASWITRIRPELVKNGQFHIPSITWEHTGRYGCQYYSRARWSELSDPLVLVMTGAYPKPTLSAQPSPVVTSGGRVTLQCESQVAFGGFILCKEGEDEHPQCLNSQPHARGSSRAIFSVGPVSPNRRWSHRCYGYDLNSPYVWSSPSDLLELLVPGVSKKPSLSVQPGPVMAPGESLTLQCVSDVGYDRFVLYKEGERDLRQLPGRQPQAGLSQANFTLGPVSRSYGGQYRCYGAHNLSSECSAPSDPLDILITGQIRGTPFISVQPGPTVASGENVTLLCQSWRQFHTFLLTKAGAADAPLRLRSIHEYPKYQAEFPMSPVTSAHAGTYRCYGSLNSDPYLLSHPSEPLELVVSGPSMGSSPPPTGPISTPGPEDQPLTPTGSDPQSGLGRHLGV

LILRA1 [7] = biological target: T7, LILRA1 (UniProt O75019 17-461, limits assumed); test: as above
T7 sequence (O75019 17-461 limits assumed): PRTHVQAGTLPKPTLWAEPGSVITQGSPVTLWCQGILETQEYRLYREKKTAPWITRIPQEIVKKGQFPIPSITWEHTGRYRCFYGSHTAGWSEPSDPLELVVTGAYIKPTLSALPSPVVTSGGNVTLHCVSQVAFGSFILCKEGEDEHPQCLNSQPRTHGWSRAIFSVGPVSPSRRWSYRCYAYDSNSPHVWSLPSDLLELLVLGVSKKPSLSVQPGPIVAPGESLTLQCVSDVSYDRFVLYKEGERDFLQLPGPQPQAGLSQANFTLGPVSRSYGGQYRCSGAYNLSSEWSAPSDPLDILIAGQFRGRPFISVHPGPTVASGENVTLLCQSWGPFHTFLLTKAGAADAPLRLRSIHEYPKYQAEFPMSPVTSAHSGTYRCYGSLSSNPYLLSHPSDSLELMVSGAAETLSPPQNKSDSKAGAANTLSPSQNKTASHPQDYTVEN

LILRA6 [8] = biological target: T8, LILRA6 (UniProt Q6PI73 24-447, limits assumed); test: as above
T8 sequence (Q6PI73 24-447 limits assumed): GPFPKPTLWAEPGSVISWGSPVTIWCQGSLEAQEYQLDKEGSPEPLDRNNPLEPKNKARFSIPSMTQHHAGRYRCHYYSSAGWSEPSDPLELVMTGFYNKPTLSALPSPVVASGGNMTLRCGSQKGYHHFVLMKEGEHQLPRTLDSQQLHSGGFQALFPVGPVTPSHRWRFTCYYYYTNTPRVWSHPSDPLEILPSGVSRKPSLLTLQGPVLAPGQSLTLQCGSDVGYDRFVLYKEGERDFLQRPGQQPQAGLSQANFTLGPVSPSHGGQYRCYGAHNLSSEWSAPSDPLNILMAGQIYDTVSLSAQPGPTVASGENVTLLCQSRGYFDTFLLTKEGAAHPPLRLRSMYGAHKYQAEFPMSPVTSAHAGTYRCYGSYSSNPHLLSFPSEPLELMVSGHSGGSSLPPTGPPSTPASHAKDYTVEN

LILRB5 [9] = biological target: T9, LILRB5 (UniProt O75023 24-458, limits assumed); test: as above
T9 sequence (O75023 24-458 limits assumed): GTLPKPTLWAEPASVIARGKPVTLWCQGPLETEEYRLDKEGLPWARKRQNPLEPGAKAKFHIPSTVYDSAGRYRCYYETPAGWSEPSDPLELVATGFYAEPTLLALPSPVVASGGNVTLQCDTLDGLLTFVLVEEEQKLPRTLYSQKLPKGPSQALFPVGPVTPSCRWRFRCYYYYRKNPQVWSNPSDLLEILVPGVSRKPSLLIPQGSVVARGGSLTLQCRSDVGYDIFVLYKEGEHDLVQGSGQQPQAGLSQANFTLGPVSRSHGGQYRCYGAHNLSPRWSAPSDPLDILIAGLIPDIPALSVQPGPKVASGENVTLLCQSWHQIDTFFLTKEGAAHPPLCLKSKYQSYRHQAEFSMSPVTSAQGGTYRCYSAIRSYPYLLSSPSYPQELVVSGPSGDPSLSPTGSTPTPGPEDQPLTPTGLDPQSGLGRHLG

LILRB1 [10] = biological target: T10, LILRB1 (UniProt Q8NHL6 24-461, limits assumed); test: as above
T10 sequence (Q8NHL6 24-461 limits assumed): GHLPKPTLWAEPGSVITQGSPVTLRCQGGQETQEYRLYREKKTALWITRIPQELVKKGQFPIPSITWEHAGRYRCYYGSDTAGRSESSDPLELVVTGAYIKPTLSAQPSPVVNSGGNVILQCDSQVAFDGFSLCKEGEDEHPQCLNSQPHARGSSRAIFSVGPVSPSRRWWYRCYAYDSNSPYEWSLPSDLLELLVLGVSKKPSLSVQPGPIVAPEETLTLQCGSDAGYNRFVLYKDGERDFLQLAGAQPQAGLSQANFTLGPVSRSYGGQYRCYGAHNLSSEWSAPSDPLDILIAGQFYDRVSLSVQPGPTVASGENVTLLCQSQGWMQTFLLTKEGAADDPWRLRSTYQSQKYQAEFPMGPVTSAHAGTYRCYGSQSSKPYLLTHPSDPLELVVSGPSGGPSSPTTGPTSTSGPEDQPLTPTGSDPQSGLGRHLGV

LILRB3 [11] = biological target: T11, LILRB3 (UniProt O75022 24-443, limits assumed); test: as above
T11 sequence (O75022 24-443 limits assumed): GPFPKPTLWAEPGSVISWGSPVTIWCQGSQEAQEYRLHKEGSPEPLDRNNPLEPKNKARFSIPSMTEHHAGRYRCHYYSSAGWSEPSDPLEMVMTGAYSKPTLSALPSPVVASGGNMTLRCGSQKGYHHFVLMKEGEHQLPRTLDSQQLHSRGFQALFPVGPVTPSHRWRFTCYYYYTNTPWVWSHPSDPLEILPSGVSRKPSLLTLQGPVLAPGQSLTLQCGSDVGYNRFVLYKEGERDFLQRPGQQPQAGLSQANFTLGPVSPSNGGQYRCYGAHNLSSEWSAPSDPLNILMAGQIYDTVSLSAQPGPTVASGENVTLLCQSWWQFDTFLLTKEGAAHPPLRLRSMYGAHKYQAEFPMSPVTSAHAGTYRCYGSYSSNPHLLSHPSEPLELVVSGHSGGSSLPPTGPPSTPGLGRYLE

LILRB4抗原 (人LILRB4蛋白胞外段) [12] = biological target: T4, LILRB4抗原 (人LILRB4蛋白胞外段); test: ELISA, coated LILRB4 100 ng/well, goat anti-mouse IgG-HRP detection
THP-1细胞表面的LILRB4 [13] = biological target: T12, THP-1细胞表面的LILRB4 (human, UniProt Q8NHJ6 22-448); test: cell-based or functional assay
THP-1细胞表面的LILRB4 [14] = biological target: T12, THP-1细胞表面的LILRB4; test: flow cytometry on THP-1 cells, FITC goat anti-mouse IgG detection
LILRA5 [15] = biological target: T1, LILRA5; test: ELISA, coated LILR family protein 100 ng/well, single antibody concentration
LILRA2 [16] = biological target: T2, LILRA2; test: as above
LILRA3 [17] = biological target: T3, LILRA3; test: as above
LILRA4 [18] = biological target: T5, LILRA4; test: as above
LILRB2 [19] = biological target: T6, LILRB2; test: as above
LILRA1 [20] = biological target: T7, LILRA1; test: as above
LILRA6 [21] = biological target: T8, LILRA6; test: as above
LILRB5 [22] = biological target: T9, LILRB5; test: as above
LILRB1 [23] = biological target: T10, LILRB1; test: as above
LILRB3 [24] = biological target: T11, LILRB3; test: as above
THP-1细胞表面的LILRB4 [25] = biological target: T12, THP-1细胞表面的LILRB4; test: flow cytometry competition on THP-1 cells; MD-Ⅰ titrated, competitor FITC-labelled ApoE at 0.4 μg/mL

T1 sequence (A6NI73 42-268 limits assumed): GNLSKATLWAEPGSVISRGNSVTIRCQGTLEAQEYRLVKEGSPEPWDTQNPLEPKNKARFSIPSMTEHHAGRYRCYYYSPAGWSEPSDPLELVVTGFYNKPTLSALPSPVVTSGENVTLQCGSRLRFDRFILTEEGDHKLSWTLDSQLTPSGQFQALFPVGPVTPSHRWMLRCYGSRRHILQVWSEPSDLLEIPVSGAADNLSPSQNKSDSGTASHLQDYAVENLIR
T3 sequence (Q8N6C8 24-439 limits assumed): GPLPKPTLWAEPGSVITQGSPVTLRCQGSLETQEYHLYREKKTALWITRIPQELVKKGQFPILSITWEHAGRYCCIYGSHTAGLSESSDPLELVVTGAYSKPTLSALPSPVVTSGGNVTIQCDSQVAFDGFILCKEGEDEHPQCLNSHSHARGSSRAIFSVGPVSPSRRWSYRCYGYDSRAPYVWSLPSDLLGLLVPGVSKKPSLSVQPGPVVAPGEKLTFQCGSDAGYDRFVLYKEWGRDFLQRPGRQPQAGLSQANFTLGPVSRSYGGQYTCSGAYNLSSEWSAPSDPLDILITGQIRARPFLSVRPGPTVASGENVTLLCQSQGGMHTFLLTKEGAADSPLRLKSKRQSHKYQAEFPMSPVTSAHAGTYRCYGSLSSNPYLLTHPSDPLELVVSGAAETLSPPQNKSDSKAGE
T2 sequence (Q8N149 24-449 limits assumed): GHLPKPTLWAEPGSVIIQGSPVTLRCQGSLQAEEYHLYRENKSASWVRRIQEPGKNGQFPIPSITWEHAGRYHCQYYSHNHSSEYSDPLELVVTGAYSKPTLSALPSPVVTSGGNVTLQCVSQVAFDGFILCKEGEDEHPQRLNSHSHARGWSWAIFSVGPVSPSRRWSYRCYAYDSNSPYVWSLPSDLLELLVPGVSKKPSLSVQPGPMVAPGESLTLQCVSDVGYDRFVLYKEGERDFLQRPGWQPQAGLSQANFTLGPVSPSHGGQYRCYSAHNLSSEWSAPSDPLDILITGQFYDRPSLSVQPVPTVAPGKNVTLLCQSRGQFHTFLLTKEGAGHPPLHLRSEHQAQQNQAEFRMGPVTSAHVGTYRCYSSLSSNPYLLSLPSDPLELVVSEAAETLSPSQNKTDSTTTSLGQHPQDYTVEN

B1: 抗LILRB4单克隆抗体MD-Ⅰ (mouse IgG1 heavy chain constant region, mouse Ck light chain constant region) (antibody, V domains shown)
VH: EVQLQESGPQLVRPGTSVKLSCKASGYTFTNYWIHWVKQRPGQGLEWIGEINPTNGHTNYNEKFKSKATLTVDKSSSTAYMQLSSLTSEDSAVYYCARYTYDQDAMDYWGQGTSVTVSS
VL: DIVITQSTSSLSASLGDRVTISCRASQDISNYLNWYQQKPDGTVKLLIYYTSRLHSGVPSRFSGSGSGTDYSLTISNLEQEDIATYFCQQGNTLPPTFGGGTKLEIKA
notes: also called MD-I
OD 450nm/630nm (LILRA5 [1]): 0.078
OD 450nm/630nm (LILRA2 [2]): 0.054
OD 450nm/630nm (LILRA3 [3]): 0.028
OD 450nm/630nm (LILRB4抗原 (人LILRB4蛋白胞外段) [4]): 2.42
OD 450nm/630nm (LILRA4 [5]): 0.156
OD 450nm/630nm (LILRB2 [6]): 0.014
OD 450nm/630nm (LILRA1 [7]): 0.075
OD 450nm/630nm (LILRA6 [8]): 0.045
OD 450nm/630nm (LILRB5 [9]): 0.056
OD 450nm/630nm (LILRB1 [10]): 0.047
OD 450nm/630nm (LILRB3 [11]): 0.015
EC50 (LILRB4抗原 (人LILRB4蛋白胞外段) [12]): 0.221 µg/mL
IC50 of inhibition of ARG1 secretion by THP-1 cells in the presence of ApoE (精氨酸酶活性检测) (THP-1细胞表面的LILRB4 [13]): 310 µg/mL
EC50 (THP-1细胞表面的LILRB4 [14]): 5.09 µg/mL
binding result (LILRA5 [15]): no binding (tested: 50μg/mL)
binding result (LILRA2 [16]): no binding (tested: 50μg/mL)
binding result (LILRA3 [17]): no binding (tested: 50μg/mL)
binding result (LILRA4 [18]): no binding (tested: 50μg/mL)
binding result (LILRB2 [19]): no binding (tested: 50μg/mL)
binding result (LILRA1 [20]): no binding (tested: 50μg/mL)
binding result (LILRA6 [21]): no binding (tested: 50μg/mL)
binding result (LILRB5 [22]): no binding (tested: 50μg/mL)
binding result (LILRB1 [23]): no binding (tested: 50μg/mL)
binding result (LILRB3 [24]): no binding (tested: 50μg/mL)
IC50 (THP-1细胞表面的LILRB4 [25]): 8.62 µg/mL
